According to article PMC10746786 (2023):

How the values were obtained:
[1] = biological target: PRRC2A; test: co-immunoprecipitation followed by mass spectrometry; settings: FLAG-tagged EIF4G2 transfected into HEK293T cells; corrected for EIF4G2 levels in IP; read off a plot
[2] = biological target: PRRC2B; test: as above; settings: FLAG-tagged EIF4G2 transfected into HEK293T cells; corrected for EIF4G2 levels in IP; read off a plot

ratio to parent [1] | ratio to parent [2] | Substance
3 | – | FLAG-tagged EIF4G2 WT (from UniProt P78344) R165C
3 | 2.3 | FLAG-tagged EIF4G2 WT (from UniProt P78344) R178Q
